Positions count from the first letter of the chain named.
T1: Human full length B7-H3 (human, UniProt Q5ZPR3 29-534)
T1 sequence: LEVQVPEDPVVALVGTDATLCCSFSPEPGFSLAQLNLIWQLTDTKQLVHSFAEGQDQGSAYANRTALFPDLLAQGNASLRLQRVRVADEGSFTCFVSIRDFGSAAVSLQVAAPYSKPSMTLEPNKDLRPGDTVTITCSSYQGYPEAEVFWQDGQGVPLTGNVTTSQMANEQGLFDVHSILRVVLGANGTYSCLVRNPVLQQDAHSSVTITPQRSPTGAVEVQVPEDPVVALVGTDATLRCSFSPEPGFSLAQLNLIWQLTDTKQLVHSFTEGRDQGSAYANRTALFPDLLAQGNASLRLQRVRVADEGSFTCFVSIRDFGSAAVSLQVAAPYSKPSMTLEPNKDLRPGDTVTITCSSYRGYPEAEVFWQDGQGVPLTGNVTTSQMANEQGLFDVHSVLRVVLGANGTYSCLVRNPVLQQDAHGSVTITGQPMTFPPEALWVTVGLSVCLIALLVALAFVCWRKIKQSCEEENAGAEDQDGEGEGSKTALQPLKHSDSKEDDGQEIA

B1: huAb13v1-TV (antibody, human IgG1, kappa, L234A L235A, V domains shown)
VH: EVQLQESGPGLVKPSETLSLTCAVTGYSITSGYSWHWIRQFPGNGLEWMGYIHSSGSTNYNPSLKSRISISRDTSKNQFFLKLSSVTAADTAVYYCAGYDDYFEYWGQGTTVTVSS
VL: DIQMTQSPSSLSASVGDRVTITCKASQNVGFNVAWYQQKPGKSPKALIYSASYRYSGVPSRFSGSGSGTDFTLTISSLQPEDFAEYFCQQYNWYPFTFGQGTKLEIKR
modifications: synthon TV on interchain Cys
B2: huAb3v2.5-ZT (antibody, human IgG1, kappa, L234A L235A, V domains shown)
VH: EVQLVQSGAEVKKPGSSVKVSCKASGYTFSSYWMHWVRQAPGQGLEWIGLIHPESGSTNYNEMFKNRATLTVDRSTSTAYMELSSLRSEDTAVYYCAGGGRLYFDYWGQGTTVTVSS
VL: DIVMTQSPLSLPVTPGEPASISCRSSQSLVHSNRDTYLRWYLQKPGQSPQLLIYKVSNRFSGVPDRFSGSGSGTDFTLKISRVEAEDVGVYYCSQSTHVPYTFGGGTKVEIKR
modifications: synthon ZT on interchain Cys
B3: huAb3v2.5-SE (antibody, human IgG1, kappa, L234A L235A, V domains shown)
VH: B2 VH
VL: B2 VL
modifications: synthon SE on interchain Cys
B4: huAb3v2.6-AAA (antibody, human IgG1, kappa, L234A L235A, V domains shown)
VH: B2 VH
VL: B2 VL with R34Q
modifications: synthon AAA on interchain Cys
B5: huAb3v2.6-AAD (antibody, human IgG1, kappa, L234A L235A, V domains shown)
VH: B2 VH
VL: B2 VL with R34Q
modifications: synthon AAD on interchain Cys
B6: huAb3v2.6-WD (antibody, human IgG1, kappa, L234A L235A, V domains shown)
VH: B2 VH
VL: B2 VL with R34Q
modifications: synthon WD on interchain Cys
B7: huAb3v2.6-TX (antibody, human IgG1, kappa, L234A L235A, V domains shown)
VH: B2 VH
VL: B2 VL with R34Q
modifications: synthon TX on interchain Cys
B8: huAb3v2.5-ZZ (antibody, human IgG1, kappa, L234A L235A, V domains shown)
VH: B2 VH
VL: B2 VL
modifications: synthon ZZ on interchain Cys
B9: huAb3v2.6-TV (antibody, human IgG1, kappa, L234A L235A, V domains shown)
VH: B2 VH
VL: B2 VL with R34Q
modifications: synthon TV on interchain Cys
B10: huAb3v2.5-SR (antibody, human IgG1, kappa, L234A L235A, V domains shown)
VH: B2 VH
VL: B2 VL
modifications: synthon SR on interchain Cys
B11: huAb3v2.6-YY (antibody, human IgG1, kappa, L234A L235A, V domains shown)
VH: B2 VH
VL: B2 VL with R34Q
modifications: synthon YY on interchain Cys
B12: huAb3v2.5-XW (antibody, human IgG1, kappa, L234A L235A, V domains shown)
VH: B2 VH
VL: B2 VL
modifications: synthon XW on interchain Cys
B13: huAb3v2.5-YG (antibody, human IgG1, kappa, L234A L235A, V domains shown)
VH: B2 VH
VL: B2 VL
modifications: synthon YG on interchain Cys
B14: huAb3v2.6-CZ (antibody, human IgG1, kappa, L234A L235A, V domains shown)
VH: B2 VH
VL: B2 VL with R34Q
modifications: synthon CZ on interchain Cys
B15: huAb3v2.5-KZ (antibody, human IgG1, kappa, L234A L235A, V domains shown)
VH: B2 VH
VL: B2 VL
modifications: synthon KZ on interchain Cys

Molecular target: T1, Human full length B7-H3
Assay: cell-based or functional assay

Binder | EC50 nM H1650 (in vitro tumor cell cytotoxicity)
B1 | 0.43 nM
B2 | 0.95 nM
B3 | 0.85 nM
B4 | 1.24 nM
B5 | 0.85 nM
B6 | 0.79 nM
B7 | 0.47 nM
B8 | 1.1 nM
B9 | 0.52 nM
B10 | 0.59 nM
B11 | 0.72 nM
B12 | 2.18 nM
B13 | 0.71 nM
B14 | 0.4 nM
B15 | 0.87 nM

From patent US20200002421A1 (AbbVie / Abbott, published 2020)
